These results are taken from the nanobody polyreactivity screen of Harvey et al. (2022).

The series is described as follows: yeast display, Sf9 membrane polyspecificity reagent, FACS + sequencing; frameworks hold sequencing errors. In outline: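 After 36–48 hours of galactose induction, yeast (Saccharomyces cerevisiae BJ5465) displaying a synthetic nanobody library were stained at 4 °C for 1 hour with 10% biotinylated, detergent-solubilized Sf9 membrane reagent. Streptavidin microbeads enriched the stained cells before FACS sorting into low and high (top ~1%) gates on anti-HA and streptavidin fluorescence. Each clone's polyreactivity label reflects its gate of origin.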
For the sequence “QVQLVESGGGLVQAGGSLRLSCAASGYIFIWYDMGGYRQAPGKERELVAAISGSGGSTYYADSVKGRFTISRDNAKNTVYLQMNSLKPEDTAVYYCAAVPAHFYGYDYWGQGTQVTVSS”, the “polyreactivity (PSR sort gate)” value is listed as “low polyreactivity”. The value for “QVQLVESGGGLVQAGGSLRLSCAASGYIFKYNAMGWYRQAPGKERELVATIRGGGSTNYADSVKGRFTISRDNAKNTVYLQMNSLKPEDTAVYYCAAVQRYEYGYWGQGTQVTVSS” was “high polyreactivity”.

For the sequence “QVQLVESGGGLVQAGGSLRLSCAASGYIFLFYGMGWYRPAPGKERELVAAITYGGGSTYYADSVKGRFTISRDNAKNTVYLQMNSLKPEDTAVYYCNAPSRLSTIFYSGYDYWGQGTQVTVSS”, the “polyreactivity (PSR sort gate)” value was “low polyreactivity”. The entry for “QVQLVESGGGLVQAGGSLRLSCAASGYIFLNYAMGWYRQAPGKEREFVATITSSGGTTYYADSVKGRFTISRDNAKNTVYLQMNSLKPEDTAVYYCNADAGWYDWVYYVGRDYWGQGTQVTVSS” is “low polyreactivity”. Take “QVQLVESGGGLVQAGGSLRLSCAASGYIFLRNAMAWYTKAPGKERELVAAIRRTGGSTYYADSVKGRFTISRDNAKNTVYLQMNSLKPEDTAVYYCAKRSYTGYEYWGQGTQVTVSS”: the “polyreactivity (PSR sort gate)” value is recorded as “low polyreactivity”. The entry for “QVQLVESGGGLVQAGGSLRLSCAASGYIFLRNAMGWSRQAPGKERELVAAIRRTGGSTYYADSVKGRFTISRDNAKNTVYLQMNSLKPEVTAVYYCAKRSYTGYEYWGQGTQVTVSS” is “low polyreactivity”.

Turning to “QVQLVESGGGLVQAGGSLRLSCAASGYIFLSYAMGWYIQAPGKERELVAAISRGGRTYYADSVKGRFTISRDNAKNTVYLQMNSLKPEDTAVYYCNAVSTPGKYGYWGQGTQVTVSS”, the “polyreactivity (PSR sort gate)” value was “high polyreactivity”.

Take “QVQLVESGGGLVQAGGSLRLSCAASGYIFNKYVMGWYRQAPGKERELVAAISASGGSTYYADSVKGRFTISRDNAKNTVYLQMNSLKPEDTAVYYCAATLYRRMDYWGQGTQVTVSS”: the “polyreactivity (PSR sort gate)” value is recorded as “high polyreactivity”. The value for “QVQLVESGGGLVQAGGSLRLSCAASGYIFNKYVMGWYRQAPGKERELVAAISASGGSTYYADSVKGRFTISRDNAKNTVYLQMNSLKPEDTSVYYCAATLYRRMDYWGQGTQVTVSS” was “high polyreactivity”. As to “QVQLVESGGGLVQAGGSLRLSCAASGYIFPFNAMGWYRQAPGKERELVAAITNGGRTYYADSVKGRFTISRDNAKNTVYLQMNSLKPEDTAVYYCAAGSKSDMDWGQGTQVTVSS”, the “polyreactivity (PSR sort gate)” value is reported as “low polyreactivity”. The entry for “QVQLVESGGGLVQAGGSLRLSCAASGYIFQDYAMGWYRQAPAKERELVARISAGGGRTYYADSVKGRFTISRENAMNTVYLQMNSLKPEDTAVYYCAAPLSYSWVYIVRYGYDYWGQGTQVTVSS” is “low polyreactivity”. The value for “QVQLVESGGGLVQAGGSLRLSCAASGYIFQPYAMGWYRQAPGKERELVAAISWRGGSTYYADSVKGRFTISRDNAKNTVYLQMNSLKPEDTAVYYCAVDAWDTTHVYEQGAERDSWGQGTQVTVSS” was “low polyreactivity”.

Take “QVQLVESGGGLVQAGGSLRLSCAASGYIFRVYAMGWYRQAPGKERELVAAISGSGGRTYYADSVKGRFTISRDNAKNTVSLQMNSLKPEDTAVYYCAAYRVSDYDYWGQGTQVTVSS”: the “polyreactivity (PSR sort gate)” value is recorded as “high polyreactivity”. The value for “QVQLVESGGGLVQAGGSLRLSCAASGYIFRYYAMGWYRQAPGKERELVAAISRSGGNTYYADSVKGRFTISRDNAMITVYLQMNSLKPEDTAVYYCAVVLSTYSYADYDYWGQGTQVTVSS” was “high polyreactivity”. Consider “QVQLVESGGGLVQAGGSLRLSCAASGYIFSINAMGWYRQAPGKERELVAAITSSGGSTYYADSVKGRFTISRDNAKNTVYLQMNSLKPEDTAVYYCNAYVRRTRDYDYWGQGTQVTVSS”, for which the “polyreactivity (PSR sort gate)” value is listed as “high polyreactivity”.

Take “QVQLVESGGGLVQAGGSLRLSCAASGYIFSSYAMGWYRQAPGKERELVAAISWTGGTYYADSVKGRFTISRDNAKNTVYLQMNSLKPEDTAVYYCAVRYKRKGSGYRTNAYDYWGQGTQVTVSS”: the “polyreactivity (PSR sort gate)” value is “high polyreactivity”.

For the sequence “QVQLVESGGGLVQAGGSLRLSCAASGYIFSYNAMGWYRQAPGKERELVAAITASGGGTYYADSVKGRFTISRDNAKNTVYLQMNSLKPDDTAVYYCAATPYSTQGLRPKFDYWGQGTQVTVSS”, the “polyreactivity (PSR sort gate)” value was “low polyreactivity”.

As for “QVQLVESGGGLVQAGGSLRLSCAASGYIFSYYAMGWYRQAPGKEREFVAAIRWRGGSTYYADSVKGRFTISRDNAKKTVYLQMNSLKPEDTAVYYCAAGPGTSYYWGQGTQVTVSS”, the “polyreactivity (PSR sort gate)” value was “high polyreactivity”. The entry for “QVQLVESGGGLVQAGGSLRLSCAASGYIFSYYAMGWYRQAPGKEREFVAAIRWRGGSTYYADSVKGRFTISRDNAKNTVYLQMNSLKPEDTAVYYCAAGPGTSYYWGQGTQVTVSS” is “high polyreactivity”.

As to “QVQLVESGGGLVQAGGSLRLSCAASGYIFTDYDMGWYRPAPGKEREFVAAISSSGGSTYYADSVKGRFTISRDNAKNTVYLQMNRLKPEDTAVYYCAARRRYGRYRGAYDYWGQGTRVTVSS”, the “polyreactivity (PSR sort gate)” value is on record as “high polyreactivity”. The value for “QVQLVESGGGLVQAGGSLRLSCAASGYIFTIYAMGWYRQAPGKERELVAAITWSGATTYYADSVKGRFTISRDNAKNTVYLQMNSLKPEDTAVYYCNADYWHYYEDYDSWGQGTQVTVSS” was “low polyreactivity”; that for “QVQLVESGGGLVQAGGSLRLSCAASGYIFTVYAMGWYRQAPGKERELVAAINWSDGSTYYADSVKGRFTISRDNAKNTVYLQMNSLKPEDTAVYYCAAESRYQRYDYWGQGTQVTVSS” was “high polyreactivity”. The entry for “QVQLVESGGGLVQAGGSLRLSCAASGYIFTYNAMGWYRQAPGKERELVAAISYSGGSTYYADSVKGRFTISRDNAKNTVYLQINSLNPEDTAVYYCNAVWRHTYGNYFWGQGTQVTVSS” is “high polyreactivity”; for “QVQLVESGGGLVQAGGSLRLSCAASGYIFTYTMGWYRQAPGKERELVAAISKSGGSTYYADSVKGRFTLSRDNAKNTVYLQMNSLKPEDTAVYYCARRGRYYLYTDDYDYWGQGTQVTVSS” it is “high polyreactivity”. The entry for “QVQLVESGGGLVQAGGSLRLSCAASGYIFVYNAMGWYRQAPGKERELVAAISTTGGRTYYADSVKGRFTISRDNAKNTVYLLMNSLKPEDTAVYYCAARAYYAWTLFGYWGQGTQVTVSS” is “high polyreactivity”; for “QVQLVESGGGLVQAGGSLRLSCAASGYIFWKNAMGWYRQAPGKERELVAGITIRGGRTYYADSVKGRFTISRDNAKNTVYLQMNSLKPEDTAVYYCNALYDYYDPYGSWGQGTQVTVSS” it is “high polyreactivity”.

For “QVQLVESGGGLVQAGGSLRLSCAASGYIFWLNALGWYRQAPGKERELVAAIRSSGGSTYYADSVKGRFTISRDNAKNTVYLQMNSLKPEDTAVYDCARRGYNWYTHFGYDYWGQGTQVTVSS”, the “polyreactivity (PSR sort gate)” value is reported as “low polyreactivity”. Take “QVQLVESGGGLVQAGGSLRLSCAASGYIFWYNAMGWYRQAPGKERELVAAISRSGGRTYYADSVKGRCTISRDNAKNTVYLQMNSLKPDDTAVYYCAAGSSHHYVYEGGYWGQGTQVTVSS”: the “polyreactivity (PSR sort gate)” value is reported as “low polyreactivity”. Take “QVQLVESGGGLVQAGGSLRLSCAASGYIFYGYAMGWYRQAHGKERELVAAITVRGGSTYYADSVKGRFTISRDNAKNTVYLQMNSLNPEDTAVYYWAAAPQFTVGVGYWGQGTQVTVSS”: the “polyreactivity (PSR sort gate)” value is reported as “low polyreactivity”. For “QVQLVESGGGLVQAGGSLRLSCAASGYIFYGYDMGWYRQAQGKERDLVAGITYSGGGGTHYADSVKGRFTISRDNAKNTVYLQMNSLKPEDTAVYYCAKADPQLNRNYYSYGMDYWGQGTQVTVSS”, the “polyreactivity (PSR sort gate)” value is reported as “low polyreactivity”. On to “QVQLVESGGGLVQAGGSLRLSCAASGYIFYYNGMGWYRQAPGKERELVAVISRRGGSTYYADSVKGRFTISRDNAKNTVYLQMNSLKPEDTAVYYCNARARSSRTYKYDYWGQGTQVTVSS”, for which the “polyreactivity (PSR sort gate)” value is “high polyreactivity”. The value for “QVQLVESGGGLVQAGGSLRLSCAASGYIFYYYAMGWYRQAPGKERELVAAISSGGSTSYADSVKGRFTISRDNAKNTVYLQMNSLKPEDTAVYYCAAYKPWYVGLYPWYDYWGQGTQVTVSS” was “low polyreactivity”; that for “QVQLVESGGGLVQAGGSLRLSCAASGYIIDVNTMGWYRPAPGKDRELVAAITSGGTTYYADSVKGRFTISRDNAKNTVYLQMNSLKPEDTAAYYCAALWSRRRSRPSFDYWGQGTQVTVSS” was “high polyreactivity”. “QVQLVESGGGLVQAGGSLRLSCAASGYIIGRYVMGWYRQAPGKERELVAAITASGGSTYYADSVKGRFTISRDNAKNTVYLQMNSLKPEDTAVYYCAAPTYGRFLRNDYWGQGTQVTVSS”: the “polyreactivity (PSR sort gate)” value was “high polyreactivity”. The value for “QVQLVESGGGLVQAGGSLRLSCAASGYIIWSYAMGWYRQAPGKERELVAGISYSGGSTYYADSVKGRFTISRDNAKNTVYLQMNSLKPEDTAVFYCAALRRGYVPFGYWGQGTQVTVSS” was “high polyreactivity”; that for “QVQLVESGGGLVQAGGSLRLSCAASGYILGRYAMGWSRQAPGNERELVAAITSGASTYYADSVKGRFTISRDNAKNTVYLQMNSLKPEDTAVYYCARVNGAKQGGEYDYWGQGTQVTVSS” was “high polyreactivity”. With “QVQLVESGGGLVQAGGSLRLSCAASGYILRSNAMGWYRQAPGKEREFVAAITYSGGSTYYADSVKGRFTISRDNAKNTVYFQRNSLKPEATAVYSCSKTTRYRRGYGYWGQGTEVTVSS”, the “polyreactivity (PSR sort gate)” value is given as “low polyreactivity”. The entry for “QVQLVESGGGLVQAGGSLRLSCAASGYILTHYAMGWYRQAPGKERELVAAITRVGNTNYADSVKGRFTISRDNAKNTVYLQMNSLKPEDTAVYYCAADGVASLFGDPPTEFDYWGQGTQVTVSS” is “low polyreactivity”; for “QVQLVESGGGLVQAGGSLRLSCAASGYILYGNTMGWYRQAPGKERELVAAISGGGSTNYADSVKGRFTISRDNAKNTVYLQMNSLKPEETAVYYCAVDVKIGTDFIGVVIPGDYWGQGTQVTVSS” it is “low polyreactivity”; for “QVQLVESGGGLVQAGGSLRLSCAASGYIYRYNAMGWYRQAPGKEREFVASISQRGGSTYYADSVKGRFTISRDNAKNTVYLQMNSLKPEDTAVYYCAARLGYYSYEYNYWGQGTQVTVSS” it is “high polyreactivity”. The entry for “QVQLVESGGGLVQAGGSLRLSCAASGYLFSYYAMGWSRQAPGKERELVATIDWGGGSTYYADSVKGRFTISRDNAKNTVYLQMNSLKPEDTGVYYCSKDYYITKYGYRYDSWGQGTQVTVSS” is “low polyreactivity”.
